Measurements from patent US20060234285A1 (Human Genome Sciences, published 2006).

T1: TNFR-6 alpha-Fc fusion protein (full length TNFR-6 alpha, amino acids 1-300 of SEQ ID NO:2, fused to the Fc … (human, UniProt O95407 30-300))
T1 construct: Construct M1-H300 fused to Fc (pA2Fc:TR6, baculovirus/Sf9); the secreted protein starts at Val 30 and is a disulfide-linked dimer; also called TNFR6-Fc; TR6-Fc
T1 sequence: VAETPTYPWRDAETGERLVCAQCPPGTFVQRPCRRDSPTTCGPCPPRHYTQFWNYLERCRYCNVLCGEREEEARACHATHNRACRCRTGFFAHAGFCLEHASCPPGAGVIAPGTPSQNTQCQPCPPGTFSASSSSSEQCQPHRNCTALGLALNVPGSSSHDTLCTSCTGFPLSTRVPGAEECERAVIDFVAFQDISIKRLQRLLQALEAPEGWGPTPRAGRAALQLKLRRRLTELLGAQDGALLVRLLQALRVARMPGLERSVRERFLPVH

T2: Recombinant, untagged TNF-gamma-beta protein (aa 72-251) from E. coli (human, UniProt O95150 72-251)
T2 construct: also called TL1β; recombinant TL1β protein
T2 sequence (looked up): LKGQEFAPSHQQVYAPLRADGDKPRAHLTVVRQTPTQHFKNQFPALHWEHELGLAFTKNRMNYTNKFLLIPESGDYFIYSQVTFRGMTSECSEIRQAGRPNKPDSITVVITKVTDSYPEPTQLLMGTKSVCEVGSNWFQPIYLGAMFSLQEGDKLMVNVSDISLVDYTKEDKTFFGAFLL

T3: Soluble human FLAG-FasL (synthesized at HGS) (human, UniProt P48023 130-281, limits assumed)
T3 construct: called trimerized in the kinetic BIAcore run; cross-linked with FLAG antibody in the cell assays; also called FasL-Flag; trimerized FLAG-FasL
T3 sequence (looked up): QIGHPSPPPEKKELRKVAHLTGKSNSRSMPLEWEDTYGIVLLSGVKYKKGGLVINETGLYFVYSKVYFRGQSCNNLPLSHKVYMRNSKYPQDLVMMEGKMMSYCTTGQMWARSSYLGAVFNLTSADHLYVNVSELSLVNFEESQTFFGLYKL

T4: Murine FasL on transfected murine L929 cells (murine, UniProt P41047 1-279)
T4 sequence (looked up): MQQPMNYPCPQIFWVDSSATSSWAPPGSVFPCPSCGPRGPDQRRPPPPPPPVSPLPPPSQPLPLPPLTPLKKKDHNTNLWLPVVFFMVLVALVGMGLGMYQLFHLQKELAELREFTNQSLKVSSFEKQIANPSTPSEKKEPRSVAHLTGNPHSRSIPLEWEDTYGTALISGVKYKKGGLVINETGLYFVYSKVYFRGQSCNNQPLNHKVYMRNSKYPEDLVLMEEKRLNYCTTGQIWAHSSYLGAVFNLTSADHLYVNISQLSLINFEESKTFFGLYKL

T5: DR6-Fc (UniProt O75509 42-349, limits assumed)
T5 construct: extracellular domain
T5 sequence (looked up): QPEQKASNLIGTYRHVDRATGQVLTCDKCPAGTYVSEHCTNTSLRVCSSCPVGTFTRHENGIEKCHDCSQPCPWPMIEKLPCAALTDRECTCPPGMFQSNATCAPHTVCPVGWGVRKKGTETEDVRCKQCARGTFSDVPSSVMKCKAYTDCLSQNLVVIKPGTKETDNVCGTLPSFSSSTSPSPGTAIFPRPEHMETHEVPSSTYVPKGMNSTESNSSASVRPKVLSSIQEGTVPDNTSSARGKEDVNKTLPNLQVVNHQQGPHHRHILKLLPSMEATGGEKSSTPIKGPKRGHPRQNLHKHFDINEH

B1: Human LIGHT, full length, on cells (stably transfected 293F cells; endogenous on activated human T cells) (ligand, UniProt O43557 1-240, looked up)
chain: MEESVVRPSVFVVDGQTDIPFTRLGRSHRRQSCSVARVGLGLLLLLMGAGLAVQGWFLLQLHWRLGEMVTRLPDGPAGSWEQLIQERRSHEVNPAAHLTGANSSLTGSGGPLLWETQLGLAFLRGLSYHDGALVVTKAGYYYIYSKVQLGGVGCPLGLASTITHGLYKRTPRYPEELELLVSQQSPCGRATSSSRVWWDSSFLGGVVHLEAGEKVVVRVLDERLVRLRDGTRSYFGAFMV
notes: whole, on cells; also called LIGHT-transfectants; cell membrane LIGHT
B2: Human TR2-Fc (extracellular domain of TR2, aa1-192, fused to the Fc domain of human IgG1) (Fc fusion, not shown: a dimerising Fc or GST)
chain: LPSCKEDEYPVGSECCPKCSPGYRVKEACGELTGTVCEPCPPGTYIAHLNGLSKCLQCQMCDPAMGLRASRNCSRTENAVCGCSPGHFCIVQDGDHCAACRAYATSSPGQRVQKGGTESQDTLCQNCPPGTFSPNGTLEECQHQTKCSWLVTKA
notes: From CHO cells
B3: DR3-Fc (extracellular domain of human DR3, aa 1-199, fused to the Fc domain of human IgG1) (Fc fusion, UniProt Q93038 25-199, looked up, not shown: a dimerising Fc or GST)
chain: QGGTRSPRCDCAGDFHKKIGLFCCRGCPAGHYLKAPCTEPCGNSTCLVCPQDTFLAWENHHNSECARCQACDEQASQVALENCSAVADTRCGCKPGWFVECQVSQCVSSSPFYCQPCLDCGALHRHTRLLCSRRDTDCGTCLPGFYEHGDGCVSCPTSTLGSCPERCAAVCGWRQ
notes: range 1-199
B4: Full-length human TR6 (without Fc) (receptor)
chain: T1 sequence
notes: Full-length cDNA expressed in Sf9 cells with the natural leader; also called TR6 non-Fc; TR6-non-Fc
B5: Human LIGHT protein, natural secreted form (aa83-240) (ligand, UniProt O43557 83-240, looked up)
chain: LIQERRSHEVNPAAHLTGANSSLTGSGGPLLWETQLGLAFLRGLSYHDGALVVTKAGYYYIYSKVQLGGVGCPLGLASTITHGLYKRTPRYPEELELLVSQQSPCGRATSSSRVWWDSSFLGGVVHLEAGEKVVVRVLDERLVRLRDGTRSYFGAFMV
notes: range 83-240; also called soluble LIGHT
B6: TNF-gamma-beta, full length, on transfected cells (ligand, human, UniProt O95150 1-251, looked up)
chain: MAEDLGLSFGETASVEMLPEHGSCRPKARSSSARWALTCCLVLLPFLAGLTTYLLVSQLRAQGEACVQFQALKGQEFAPSHQQVYAPLRADGDKPRAHLTVVRQTPTQHFKNQFPALHWEHELGLAFTKNRMNYTNKFLLIPESGDYFIYSQVTFRGMTSECSEIRQAGRPNKPDSITVVITKVTDSYPEPTQLLMGTKSVCEVGSNWFQPIYLGAMFSLQEGDKLMVNVSDISLVDYTKEDKTFFGAFLL
notes: whole, on cells; also called TL1β
B7: BCMA-Fc (Fc fusion, human, UniProt Q02223 1-54, looked up, not shown: a dimerising Fc or GST)
chain: MLQMAGQCSQNEYFDSLLHACIPCQLRCSSNTPPLTCQRYCNASVTNSVKGTNA
notes: Control surface in the BIAcore analysis

Columns and labels:
[1] = molecular target: T1, TNFR-6 alpha-Fc fusion protein (full …); assay: conclusion from flow cytometry
[2] = molecular target: B4; assay: flow cytometry competition on activated human T cells
[3] = molecular target: B5; assay: BIAcore, TR2-Fc immobilized, LIGHT in flow; TR2-Fc
Procedure: (§1) The amount of bound protein was determined during washing of the flow cell with HBS buffer (10 mM HEPES, pH 7.4, 150 mM NaCl, 3.4 mM EDTA, 0.005% Surfactant P20). The flow cell surface was regenerated by washing off the bound proteins with 20 microliters of 10 mM glycine-HCl pH 2.3. […] The on- and off-rates were determined according a kinetic evaluation program in the BiaEvaluation 3 software using a 1:1 binding model and the global analysis method.

[4] = molecular target: T2, Recombinant, untagged TNF-gamma-beta …; assay: BIAcore, DR3-Fc immobilized, TNF-gamma-beta 3-370 nM in flow; DR3-Fc
Procedure: (§2) TNFR-Fc were covalently immobilized to the BIAcore sensor chip (CM5 chip) via amine groups using N-ethyl-N′-(dimethylaminopropyl) carbodiimide/N-hydroxysuccinimide chemistry. […] The amount of bound protein was determined during washing of the flow cell with HBS buffer (10 mM HEPES, pH 7.4, 150 mM NaCl, 3.4 mM EDTA, 0.005% Surfactant P20). The flow cell surface was regenerated by displacing bound protein by washing with 20 microliters of 10 mM glycine-HCl, pH 2.3. For kinetic analysis, the on and off rates were determined using the kinetic evaluation program in BIAevaluation 3 software using a 1:1 binding model and the global analysis method.

[5] = molecular target: T2, Recombinant, untagged TNF-gamma-beta …; assay: BIAcore, three batches of TNF-gamma-beta; DR3-Fc, average of three batches
Procedure: as §2

[6] = molecular target: T3, Soluble human FLAG-FasL (synthesized at …); assay: BIAcore
[7] = molecular target: B5; assay: BIAcore
[8] = molecular target: T4, Murine FasL on transfected murine L929 …; assay: cell-based or functional assay
[9] = molecular target: B6; assay: flow cytometry competition, competitor DR3-Fc
Procedure: (§3) One million cells, in 0.1 ml of FACS buffer (PBS, 0.1% BSA, 0.1% NaN₃), were incubated with 0.1-1 microgram of protein or antibody at RT for 15 min. The cells were washed with 3 ml of FACS buffer, reacted with biotinylated primary antibody, and stained with PE-conjugated secondary antibody at RT for 15 min. Cells were then washed again, resuspended in 0.5 microgram/ml of propidium iodide, and live cells were gated and analyzed on a FACScan using the CellQuest software (BD Biosciences).

[10] = molecular target: T1, TNFR-6 alpha-Fc fusion protein (full …); assay: BIAcore; TR6-Fc
Procedure: as §1

[11] = molecular target: B4; assay: BIAcore; TR6 without Fc
Procedure: as §1

[12] = molecular target: T1, TNFR-6 alpha-Fc fusion protein (full …); assay: BIAcore, receptor immobilized, LIGHT in flow; TR6-Fc
Procedure: as §1

[13] = molecular target: T1, TNFR-6 alpha-Fc fusion protein (full …); assay: FACS on transfected cells
DR6-Fc = molecular target: T5, DR6-Fc; assay: flow cytometry on HEK293F cells expressing full length TNF-gamma-beta
Procedure: as §3

[14] = molecular target: T2, Recombinant, untagged TNF-gamma-beta …; assay: BIAcore, receptor-Fc immobilized
Procedure: as §2

Binder: B1
binding result [1]: binds
binding result [2]: binds

Binder: B2
Kd [3]: 4.56 nM

Binder: B3
koff [4]: 0.00413 s⁻¹
kon [4]: 639000 M⁻¹ s⁻¹
Kd [5]: 6.45 nM

Binder: B4
fold reduction in affinity against TR6-Fc [6]: 4 fold
fold higher off rate against TR6-Fc [7]: ~2 fold
IC50 of inhibition of killing of A20 target cells by murine FasL-transfected L929 cells [8]: ~1 ng/mL
molar ratio of TR6 to DR3-Fc at which no DR3-Fc binding was detected [9]: 2 molar ratio (TR6:DR3-Fc)

Binder: B5
koff [10]: 0.0023 s⁻¹
kon [10]: 422000 M⁻¹ s⁻¹
Kd [11]: 14.3 nM
koff [11]: 0.00483 s⁻¹
kon [11]: 338000 M⁻¹ s⁻¹
Kd [12]: 5.46 nM

Binder: B6
binding result [13]: binds
binding result (DR6-Fc): no binding

Binder: B7
binding result [14]: no binding (tested: 3-370 nM)
